Source: FireProtDB (doi:10.1021/bi982078m)

Settings: Aspergillus oryzae (strain ATCC 42149 / RIB 40), pH 3, 25 °C, Absorbance, glycine-HCl 0.05 M, reversible: yes, whole UniProt chain shown

B1: Guanyl-specific ribonuclease T1 wild type, P00651 (protein)
chain: MMYSKLLTLTTLLLPTALALPSLVERACDYTCGSNCYSSSDVSTAQAAGYQLHEDGETVGSNSYPHKYNNYEGFDFSVSSPYYEWPILSSGDVYSGGSPGADRVVFNENNQLAGVITHTGASGNNFVECT
With B1 the denaturant m value (GdnHCl, KCl 0.1-1.0 M) was 2.83 kcal/mol/M, the “denaturant midpoint (higher = more stable)” value (shortened to “denaturant midpoint”) (GdnHCl, KCl 0.1-1.0 M) was 1.78 M and the unfolding free energy (GdnHCl, KCl 0.1-1.0 M) was 5.03 kcal/mol. The denaturant m value (Urea, KCl 0.10 M) was 1.98 kcal/mol/M, the “denaturant midpoint” value (Urea, KCl 0.10 M) was 2.05 M and the unfolding free energy (Urea, KCl 0.10 M) was 4.07 kcal/mol. The denaturant m value (Urea, KCl 0.50 M) was 1.71 kcal/mol/M, the “denaturant midpoint” value (Urea, KCl 0.50 M) was 2.4 M and the unfolding free energy (Urea, KCl 0.50 M) was 4.1 kcal/mol. For the same protein, the denaturant m value (Urea, KCl 1.00 M) was 1.59 kcal/mol/M, the “denaturant midpoint” value (Urea, KCl 1.00 M) was 2.82 M and the unfolding free energy (Urea, KCl 1.00 M) was 4.49 kcal/mol. For the same protein, the denaturant m value (Urea, KCl 1.25 M) was 1.65 kcal/mol/M, the “denaturant midpoint” value (Urea, KCl 1.25 M) was 3.02 M and the unfolding free energy (Urea, KCl 1.25 M) was 4.99 kcal/mol. For the same protein, the denaturant m value (Urea, KCl 1.50 M) was 1.54 kcal/mol/M, the “denaturant midpoint” value (Urea, KCl 1.50 M) was 3.41 M and the unfolding free energy (Urea, KCl 1.50 M) was 5.26 kcal/mol.
